Source: patent US5763571

Target: c-Ha-Ras bound to GTP (Ras-GTP) (Homo sapiens (Human)) (UniProt P01112)
Assay: assay not given

Raf(1-137) was tested, and the fold reduction in binding affinity against Raf(1-149) was 10 fold.
